In patent US20240189439A1 (Novartis, published 2024):
Changes are numbered by the printed parent chain. Each block holds one binder with its values, some of them ahead of it.

Columns and labels:
rat PMEL17 = rat PMEL17 (rat, UniProt D3ZED8 73-680); assay: FACS titration of IgG on HKB11-rat PMEL17 cells, Alexa Fluor detection antibody
Procedure: (§1) Purified IgGs were titrated on a variety of PMEL17 expressing and PMEL17 non expressing cell lines (for control) to determine EC50 values. Cells were harvested using Accutase, adjusted to ˜4×10^6 cells/ml into FACS buffer (PBS, 3% FCS and 0.02% Na-Azide) and kept on ice to avoid internalization. 15 μl of cell suspension/well were transferred into 384 well V-bottom plates (Greiner, Cat #781280) and incubated with 15 μl of IgGs at different concentrations (most commonly from 200 to 3.5×10-3 nM) for 1 hour at 4° C., gently shaking. Following incubation, cells were washed three times with FACS buffer. After each washing step, cells were centrifuged (250×g, 5 min, 4° C.) and carefully resuspended. 15 p of detection antibody conjugated to PE (PE-conjugated goat anti-human IgG, F(ab′)₂ fragment specific, 1:150 in FACS buffer; Jackson Immuno Research, #109-116-097) or Alexa Fluor (Alexa Fluor-conjugated goat anti-human IgG, F(ab′)2 fragment specific, 1:150 in FACS buffer; Jackson Immuno Research, #109-606-097) were added and samples were incubated for 45 minutes to 1 hour on ice in the dark, gently shaking. After 3 washing steps, cells were resuspended in 30 μl of FACS buffer and samples were measured using the IntelliCyt HTFC device. EC50 values were calculated using the Graphpad Prism software.

cyno PMEL17 = target: T1, cyno PMEL17 (cyno, UniProt A0A2K5WWN0 25-668); assay: FACS titration of IgG on HKB11-cyno-PMEL17 cells, Alexa Fluor detection antibody
T1 construct: whole, on cells; also called HKB11-cyno; HKB11-cyno-PMEL17
T1 sequence: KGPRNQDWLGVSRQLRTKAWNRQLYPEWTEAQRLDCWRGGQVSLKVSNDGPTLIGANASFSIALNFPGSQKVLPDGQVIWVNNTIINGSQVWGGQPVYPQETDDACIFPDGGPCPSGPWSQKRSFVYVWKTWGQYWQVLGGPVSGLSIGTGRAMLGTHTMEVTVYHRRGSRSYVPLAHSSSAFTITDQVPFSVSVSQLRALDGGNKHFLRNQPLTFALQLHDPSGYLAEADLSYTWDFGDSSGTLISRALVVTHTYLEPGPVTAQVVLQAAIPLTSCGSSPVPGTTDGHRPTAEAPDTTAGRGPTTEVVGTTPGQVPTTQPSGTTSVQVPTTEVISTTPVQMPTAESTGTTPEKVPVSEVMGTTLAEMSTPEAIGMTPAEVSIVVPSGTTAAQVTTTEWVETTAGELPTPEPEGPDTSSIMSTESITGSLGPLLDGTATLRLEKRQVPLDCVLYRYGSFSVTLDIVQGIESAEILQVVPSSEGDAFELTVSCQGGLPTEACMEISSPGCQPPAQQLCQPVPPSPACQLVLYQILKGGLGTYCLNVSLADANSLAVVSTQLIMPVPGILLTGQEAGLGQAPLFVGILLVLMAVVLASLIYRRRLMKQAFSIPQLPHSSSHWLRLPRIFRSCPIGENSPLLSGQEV
Procedure: as §1

mouse PMEL17 = target: T2, mouse PMEL17 (mouse, UniProt Q60696 24-626); assay: FACS titration of IgG on B16-F10 cells (mouse melanoma), Alexa Fluor detection antibody
T2 construct: whole, on cells; also called B16-F10 (mouse)
T2 sequence (looked up): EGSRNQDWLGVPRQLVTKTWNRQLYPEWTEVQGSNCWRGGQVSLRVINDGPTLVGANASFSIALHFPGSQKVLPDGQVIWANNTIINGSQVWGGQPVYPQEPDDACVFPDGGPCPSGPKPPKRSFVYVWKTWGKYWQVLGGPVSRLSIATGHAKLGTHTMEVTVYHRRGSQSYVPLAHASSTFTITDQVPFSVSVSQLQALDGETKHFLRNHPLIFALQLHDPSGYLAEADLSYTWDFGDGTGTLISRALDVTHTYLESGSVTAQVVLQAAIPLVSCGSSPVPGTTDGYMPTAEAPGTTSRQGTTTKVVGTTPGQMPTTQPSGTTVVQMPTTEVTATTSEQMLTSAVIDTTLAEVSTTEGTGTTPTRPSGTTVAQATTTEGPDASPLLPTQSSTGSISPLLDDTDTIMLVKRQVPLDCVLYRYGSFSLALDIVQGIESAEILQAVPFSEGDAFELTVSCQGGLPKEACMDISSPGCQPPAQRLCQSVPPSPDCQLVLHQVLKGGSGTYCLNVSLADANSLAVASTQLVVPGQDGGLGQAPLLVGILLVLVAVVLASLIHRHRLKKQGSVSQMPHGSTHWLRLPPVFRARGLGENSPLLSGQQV
Procedure: as §1

rat PMEL17, sequence (D3ZED8 entry or part of it): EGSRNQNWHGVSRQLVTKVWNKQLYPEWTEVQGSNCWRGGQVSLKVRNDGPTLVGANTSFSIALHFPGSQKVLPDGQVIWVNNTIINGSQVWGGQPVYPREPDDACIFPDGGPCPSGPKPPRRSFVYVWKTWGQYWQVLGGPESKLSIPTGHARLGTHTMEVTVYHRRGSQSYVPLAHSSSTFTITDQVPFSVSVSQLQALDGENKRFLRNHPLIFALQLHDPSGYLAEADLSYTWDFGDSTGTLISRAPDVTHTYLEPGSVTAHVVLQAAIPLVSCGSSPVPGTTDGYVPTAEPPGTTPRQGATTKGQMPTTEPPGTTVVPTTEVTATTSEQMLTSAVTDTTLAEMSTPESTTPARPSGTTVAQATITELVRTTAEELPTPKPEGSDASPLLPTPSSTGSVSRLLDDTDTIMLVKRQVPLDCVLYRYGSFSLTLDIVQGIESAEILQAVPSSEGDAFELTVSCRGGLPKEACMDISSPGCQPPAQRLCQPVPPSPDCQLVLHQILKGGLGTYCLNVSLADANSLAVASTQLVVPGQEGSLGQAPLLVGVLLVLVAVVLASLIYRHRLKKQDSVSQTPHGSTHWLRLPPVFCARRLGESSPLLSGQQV

B2: Y010900 (antibody, V domains shown)
VH: EVQLVESGGGLVKPGGSLRLSCAASGFTFSNAWMSWVRQAPGKGLEWVGRIKSKTDAGTTDYAAPVKGRFTISRDDSKNTLYLQMNSLKTEDTAVYYCARTIYPSAPSSSLDYWGQGTLVTVSS
VL: DIQMTQSPSSLSASVGDRVTITCRASQGISNYLAWYQQKPGKVPKLLIYAASTLQSGVPSRFSGSGSGTDFTLTISSLQPEDVATYYCQQLIFFPLTFGQGTKVEIK
notes: Tested as purified human IgG
EC50 (rat PMEL17): 9.3 nM
EC50 (cyno PMEL17): 1.2 nM

B3: Y010415 (antibody, V domains shown)
VH: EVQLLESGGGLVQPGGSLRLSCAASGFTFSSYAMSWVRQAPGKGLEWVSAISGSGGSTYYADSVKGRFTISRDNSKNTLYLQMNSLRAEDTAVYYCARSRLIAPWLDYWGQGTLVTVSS
VL: DIQMTQSPSSLSASVGDRVTITCRASQSISSYLNWYQQKPGKAPKLLIYAASSLQSGVPSRFSGSGSGTDFTLTISSLQPEDFATYYCQQVYGSPPTFGQGTKVEIK
notes: Tested as purified human IgG
EC50 (rat PMEL17): 0.4 nM
EC50 (cyno PMEL17): 5.4 nM

B5: Y010417 (antibody, V domains shown)
VH: EVQLVQSGAEVKKPGESLKISCKGSGYSFTSYWIGWVRQMPGKGLEWMGIIYPGDSDTRYSPSFQGQVTISADKSISTAYLQWSSLKASDTAMYYCARGSSAASGLSGDLWGQGTLVTVSS
VL: B3 VL with V91D, G93Y, P96F
notes: Tested as purified human IgG
EC50 (cyno PMEL17): 6.3 nM

B6: Y010903 (antibody, V domains shown)
VH: EVQLVESGGGLVKPGGSLRLSCAASGFTFSNAWMSWVRQAPGKGLEWVGRIKSKTDAGTTDYAAPVKGRFTISRDDSKNTLYLQMNSLKTEDTAVYYCARASHRLHSLFDVWGQGTLVTVSS
VL: DIQMTQSPSTLSASVGDRVTITCRASQSISSWLAWYQQKPGKAPKLLIYDASSLESGVPSRFSGSGSGTEFTLTISSLQPEDFATYYCQQGLFYPHTFGQGTKVEIK
notes: Tested as purified human IgG
EC50 (rat PMEL17): 5.6 nM
EC50 (cyno PMEL17): 2 nM
EC50 (mouse PMEL17): 928 nM

B7: Y010355 (antibody, V domains shown)
VH: EVQLVESGGGLVKPGGSLRLSCAASGFTFSNYWISWVRQAPGKGLEWVGRIKSKTYGGTTDYAEPVKGRFTISRDDSKNTLYLQMNSLKTEDTAVYYCARTSRRSYAFDYWGQGTLVTVSS
VL: B6 VL with G91I, L92T, F93R, H96V
notes: Tested as purified human IgG
EC50 (rat PMEL17): 0.8 nM
EC50 (cyno PMEL17): 3.9 nM
EC50 (mouse PMEL17): 0.8 nM

B8: Y010429 (antibody, V domains shown)
VH: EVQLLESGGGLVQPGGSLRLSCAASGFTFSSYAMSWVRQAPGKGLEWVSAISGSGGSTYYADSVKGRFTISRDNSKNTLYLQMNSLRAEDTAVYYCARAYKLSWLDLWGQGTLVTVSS
VL: B3 VL with Y92W, G93Y, S94A, P96V
notes: Tested as purified human IgG
EC50 (rat PMEL17): 1.5 nM
EC50 (cyno PMEL17): 10.7 nM
EC50 (mouse PMEL17): 60.2 nM

B11: Y010356 (antibody, V domains shown)
VH: EVQLVESGGGLVKPGGSLRLSCAASGFTFSNYWISWVRQAPGKGLEWVGRIKSKTYGGTTDYAEPVKGRFTISRDDSKNTLYLQMNSLKTEDTAVYYCARVSGYYSHSGGFDVWGQGTLVTVSS
VL: B2 VL with Q90K, L91T, I92W, F93R, F94T, L96G
notes: Tested as purified human IgG
EC50 (rat PMEL17): 1.4 nM
EC50 (cyno PMEL17): 4.5 nM
EC50 (mouse PMEL17): 1.4 nM

The next lines start with the values.

EC50 (rat PMEL17): 21.7 nM
EC50 (cyno PMEL17): 2 nM
EC50 (mouse PMEL17): 140 nM
B1: Y010906 (antibody, V domains shown)
VH: EVQLVESGGGLVKPGGSLRLSCAASGFTFSNAWMSWVRQAPGKGLEWVGRIKSKTDAGTTDYAAPVKGRFTISRDDSKNTLYLQMNSLKTEDTAVYYCARDEYPWGWFDVWGQGTLVTVSS
VL: B2 VL with L11V, N31S, Y32W, V43A, T53S, V83F, L91Y, F94Y
notes: Tested as purified human IgG

EC50 (rat PMEL17): 13.7 nM
EC50 (cyno PMEL17): 3.5 nM
EC50 (mouse PMEL17): 41.1 nM
B4: Y010910 (antibody, V domains shown)
VH: EVQLVESGGGLVKPGGSLRLSCAASGFTFSNAWMSWVRQAPGKGLEWVGRIKSKTDAGTTDYAAPVKGRFTISRDDSKNTLYLQMNSLKTEDTAVYYCARVASPSAPGGFDYWGQGTLVTVSS
VL: B2 VL with L91S, I92L, F94A, L96F
notes: Tested as purified human IgG

EC50 (rat PMEL17): 7.5 nM
EC50 (cyno PMEL17): 1.6 nM
B9: MOR024353 (antibody, V domains shown)
VH: QVQLVQSGAEVKKPGSSVKVSCKASGGTFSDYAISWVRQAPGQGLEWMGGIIPIFGDANYAQKFQGRVTITADESTSTAYMELSSLRSEDTAVYYCAREGSSYFYMAYWGQGTLVTVSS
VL: SYELTQPLSVSVALGQTARITCSGDNIGSKLASWYQQKPGQAPVLVIYDDSNRPSGIPERFSGSNSGNTATLTISRAQAGDEADYYCAATAGDRWAYVFGGGTKLTVL
notes: Tested as purified human IgG

EC50 (rat PMEL17): 2.4 nM
EC50 (cyno PMEL17): 2.1 nM
B10: MOR024354 (antibody, V domains shown)
VH: QVQLLESGGGLVQPGGSLRLSCAASGFTFSSFGMSWVRQAPGKGLEWVSAISYSGSDTYYADSVKGRFTISRDNSKNTLYLQMNSLRAEDTAVYYCARDVGVMDYWGQGTLVTVSS
VL: SYELTQPLSVSVALGQTARITCSGDNLGTYYAHWYQQKPGQAPVLVIYSQSHRPSGIPERFSGSNSGNTATLTISRAQAGDEADYYCGAWDAPSPELVFGGGTKLTVL
notes: Tested as purified human IgG
